Measured values taken from PMC6305486, “Structural Insights into the FtsQ/FtsB/FtsL Complex, a Key Component of the Divisome” (Scientific Reports, 2018).
Where a chain is given by its changes, count along the chain named. Names and notes keep the numbering of the source. Blank lines part the entries; values can stand above or below the binder they belong to.

Assays:
Settings in all cases: both partners purified
[1] = target: T1, e5-FtsB_(25–103) (E. coli, UniProt P0A6S5 25-103); assay: SEC; analytical gel filtration, Superdex 200 10/300 GL, buffer B (20 mM Tris-HCl pH 8.0, 200 mM NaCl), 0.5 mL/min; high concentrations (101–370 μM); apparent Stokes radius compared with radii calculated from models
T1 chain: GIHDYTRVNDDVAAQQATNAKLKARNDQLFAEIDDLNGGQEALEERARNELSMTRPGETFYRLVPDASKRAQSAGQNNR

[2] = target: T2, FtsQ_(50–276) (E. coli, UniProt P06136 50-276); assay: as above
T2 construct: pET21a; also called periplasmic domain of FtsQ; WT FtsQ; source: for the complexes purified together with its partners from mixed cell pellets
T2 sequence (P06136 50-276): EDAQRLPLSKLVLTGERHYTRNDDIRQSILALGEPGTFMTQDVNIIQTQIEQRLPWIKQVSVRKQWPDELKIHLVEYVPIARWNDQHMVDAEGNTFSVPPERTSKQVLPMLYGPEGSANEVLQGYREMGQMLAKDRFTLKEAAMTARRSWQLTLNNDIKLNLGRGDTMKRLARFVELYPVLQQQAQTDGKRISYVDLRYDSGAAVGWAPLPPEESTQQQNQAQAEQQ

[3] = target: T2, FtsQ_(50–276); assay: BLI; BLItz; GST-fused FtsB proteins or GST-e5-FtsB/k5-FtsL complexes immobilised on AR2G biosensor by amine coupling; FtsQ_(50–276) (WT or Y248A) in solution, 0.1–80 μM; running buffer 20 mM Tris-HCl pH 8.0, 200 mM NaCl; equilibrium analysis of points at 100 s

stoichiometry N [1]: 1 FtsB:FtsL ratio (2:2)
B1: k5-FtsL_(64–121) (domain or fragment)
chain: TAQREQLVLERDALDIEWRNLILEENALGDHSRVERIATEKLQMQHVDPSQENIVVQK

binding result [2]: binds
B2: FtsB_(25–103) L46P (domain or fragment, E. coli, UniProt P0A6S5 25-103, looked up)
chain: T1 chain with L22P
notes: also called FtsQB L46P mutant

Kd [3]: 670 nM
B3: GST-fused FtsB_(25–103) (domain or fragment, E. coli, UniProt P0A6S5 25-103, looked up)
chain: T1 chain
notes: pGST2; source: E. coli BL21 (DE3), purified (glutathione-Sepharose, gel filtration); not shown: GST, N-terminal, kept

Kd [3]: 900 nM
B4: GST-fused FtsB_(61–103) (domain or fragment, E. coli, UniProt P0A6S5 61-103, looked up)
chain: NGGQEALEERARNELSMTRPGETFYRLVPDASKRAQSAGQNNR
notes: as for B3
